From US20250270301A1 (GEN2 NEUROSCIENCE, published 2025)
Numbering of substitutions follows the chain as printed. Read-outs that look alike come from different tables or passages of the source. Values belong to the binder of their own block, whether it stands above or below them.

Experiments:
Bovine serum albumin [1] = biological target: T1, Bovine serum albumin (bovine, UniProt P02769 25-607); assay: ELISA on 1% BSA, HEK supernatant, anti-human IgG-HRP, n=1
T1 construct: also called BSA

[2] = biological target: monomeric P301S 2N4R tau, pHrodo-labelled (human, UniProt P10636 1-758, pHrodo Red maleimide label); assay: cell-based or functional assay
monomeric P301S 2N4R tau, pHrodo-labelled, sequence (P10636 other isoform, or with tags, fused parts or gaps P301S P301S): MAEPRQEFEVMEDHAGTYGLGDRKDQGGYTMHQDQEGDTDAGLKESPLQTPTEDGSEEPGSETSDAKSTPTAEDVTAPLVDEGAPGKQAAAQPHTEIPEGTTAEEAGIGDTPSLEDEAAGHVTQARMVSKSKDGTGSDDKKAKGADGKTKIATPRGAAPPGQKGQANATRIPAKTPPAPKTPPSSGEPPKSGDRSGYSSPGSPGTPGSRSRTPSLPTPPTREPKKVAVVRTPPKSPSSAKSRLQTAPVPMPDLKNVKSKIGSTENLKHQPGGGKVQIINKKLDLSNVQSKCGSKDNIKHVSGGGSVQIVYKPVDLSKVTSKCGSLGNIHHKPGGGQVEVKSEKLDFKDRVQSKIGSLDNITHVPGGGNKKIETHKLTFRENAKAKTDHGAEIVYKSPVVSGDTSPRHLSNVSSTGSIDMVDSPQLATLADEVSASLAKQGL

[3] = biological target: aggregated (oligomeric) P301S 2N4R tau, pHrodo-labelled (human, UniProt P10636 1-758, pHrodo Red maleimide label); assay: cell-based or functional assay
aggregated (oligomeric) P301S 2N4R tau, pHrodo-labelled, sequence (P10636 other isoform, or with tags, fused parts or gaps P301S P301S): as above

[4] = biological target: T2, full length recombinant human 2N4R tau (human, UniProt P10636 1-758); assay: SPR MCK, IgG on Protein A, tau in flow at 100 µL/min
T2 construct: bought from rPeptide; pHrodo Red maleimide-labelled where it stands in uptake assays; also called tau1-441; full length tau
T2 sequence (P10636 other isoform, or with tags, fused parts or gaps limits assumed): as the sequence (P10636 other isoform, or with tags, fused parts or gaps P301S P301S) above, with S301P counted along it

[5] = biological target: T2, full length recombinant human 2N4R tau; assay: SPR MCK, IgG on Protein A, tau in flow at 100 µL/min; on the border of mass transport limitation
[6] = biological target: T2, full length recombinant human 2N4R tau; assay: SPR SCK, IgG on Protein A, tau in flow
[7] = biological target: T2, full length recombinant human 2N4R tau; assay: ELISA on 2N4R tau (100 ng/well), HEK supernatant, anti-human IgG-HRP, n=1
Method: FIG. 7. A panel of humanised anti-tau IgG bind to full length recombinant 2N4R tau in an ELISA format. Supernatants from HEK cells transiently transfected with each IgG clone were tested at 1:100 for binding to full length recombinant 2N4R tau (solid bars). […] Binding of anti-tau hIgG1 was detected using an HRP-conjugated anti-human secondary antibody and data are shown from a representative experiment (n=1 replicate).
(§1) Antigen was removed from wells and the plates were then blocked for 1 hour at RT with 5% dried milk in 1×TBS. Blocking solution was removed, HEK293 cell supernatant (1:100 in 1% BSA/1×TBS) was added to relevant wells, and plates were incubated for 1 hour at RT with gentle shaking. Plates were then washed four times with TBS/0.1% Tween (TBST). Goat anti-human IgG-HRP antibody (Thermo Fisher Scientific, Waltham, MA, USA), diluted 1:2000 in 5% milk/TBS, was added to each well and plates were incubated for 1 hour at RT with gentle shaking before being washed four times with TBST. 3,3′,5,5′-tetramethylbenzidine (TMB) ELISA solution was added to each well and plates were incubated for 15 mins at RT. An equal volume of 1 M sulfuric acid was added to each well and OD was measured at 450 nm.

Bovine serum albumin [8] = biological target: T1, Bovine serum albumin; assay: ELISA on 1% BSA, HEK supernatant, anti-human IgG-HRP, n=1; remark: listed apart in the source
How it was run: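 Wells coated with antigen, blocked 1 h RT in 5% milk/TBS; HEK293 transient-transfection supernatants applied at 1:100 in 1% BSA/TBS for 1 h RT. Bound hIgG1 detected with anti-human IgG-HRP (1:2000), TMB 15 min, acid stop, OD450; single replicate.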

[9] = biological target: T2, full length recombinant human 2N4R tau; assay: ELISA, tau coated on the plate
Method: as §1, with “ELISA plates were coated with antigen (non-conjugated antigen peptide (Antigen peptide ([C]-[…]-amide (SEQ ID NO: 13)) or full length 2N4R tau (SEQ ID NO: 2), 100 ng/well; or 1% BSA in 1×TBS) in 1× carbonate-bicarbonate buffer for 1 hour at 37° C. Antigen” for “Antigen”, “HEK293F” for “HEK293”, “(10 μg/mL, to 0.0001 μg/mL” for “(1:100”, “Anti-rabbit” for “Goat anti-human”, “(Sigma, St Louis, MO,” for “(Thermo Fisher Scientific, Waltham, MA,”, “1:5000” for “1:2000”

[10] = biological target: T2, full length recombinant human 2N4R tau; assay: SPR MCK, IgG on Protein A, tau in flow
Method: Anti-tau IgGs bind to full length 2N4R tau (SEQ ID NO: 2) with high affinity. […] It is predicted that the binding affinity of these antibodies would be equivalent to any tau species containing the epitope corresponding to amino acids 369-381 of 2N4R tau (SEQ ID NO: 1), if this sequence is accessible.
19.2 Assessment of antibody binding to tau: Binding of anti-tau hIgG1 to full length recombinant 2N4R tau (Rpeptide; SEQ ID NO: 2) was assessed using the Biacore T200 (GE Healthcare, Chicago, IL, USA) running Biacore T200 Evaluation Software V2.0.1. hIgG1 were immobilised on a Protein A capture sensor chip in running buffer (HBS-EP+ buffer containing 1 mg/mL BSA) at 25° C., captured to ˜50 RU at 10 μL/min. For multi-cycle kinetics experiments (clone #66), recombinant 2N4R tau was flowed at concentrations ranging from 0.39 nM to 50 nM in running buffer at 40 μL/min, with an association time of 150 s and a dissociation time of 250 s. Optimised conditions for multiple-cycle kinetics experiments were applied to clone #44: recombinant 2N4R tau was flowed at concentrations ranging from 0.39 nM to 12.5 nM (2-fold dilutions) with an association time of 60 s and a dissociation time of 200 s (cropped to 65 s to improve analysis fit). Curves were compared to a reference cell that was mock immobilized (no antibody present).

[11] = biological target: T2, full length recombinant human 2N4R tau; assay: SPR SCK, IgG on Protein A, tau in flow; remark: listed apart in the source
How it was run: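 Antibodies were captured to ~50 RU on a Protein A chip in HBS-EP+ with 1 mg/mL BSA at 25 °C. Tau was injected by single-cycle kinetics at 1.25–10 nM (2-fold), with 60 s association and 200 s dissociation. Signals were referenced to a mock-immobilized cell.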

[12] = biological target: T2, full length recombinant human 2N4R tau; assay: SPR MCK, IgG on Protein A, tau in flow; remark: listed apart in the source
Method: Slight variations in RMAX are considered likely to be due to differences in ligand capture and not reflective of significant variation in antibody binding characteristics.
22.2 Assessment of antibody binding to tau (Biacore MCK analysis): Binding of anti-tau hIgG1 to full length recombinant 2N4R tau (Rpeptide; SEQ ID NO: 2) was assessed using the Biacore T200 (GE Healthcare, Chicago, IL, USA) running Biacore T200 Evaluation Software V2.0.1. hIgG1 were immobilised on a Protein A capture sensor chip in running buffer (HBS-EP+ buffer containing 1 mg/mL BSA) at 25° C., captured to ˜50 RU at […]. For multi-cycle kinetics experiments, recombinant 2N4R tau was flowed at concentrations ranging from 0.39 nM to 12.5 nM in running buffer at 40 μL/min, with an association time of 60 s and a dissociation time of 200 s. Curves were compared to a reference cell that was mock immobilized (no antibody present).

T1 sequence (P02769 25-607 limits assumed): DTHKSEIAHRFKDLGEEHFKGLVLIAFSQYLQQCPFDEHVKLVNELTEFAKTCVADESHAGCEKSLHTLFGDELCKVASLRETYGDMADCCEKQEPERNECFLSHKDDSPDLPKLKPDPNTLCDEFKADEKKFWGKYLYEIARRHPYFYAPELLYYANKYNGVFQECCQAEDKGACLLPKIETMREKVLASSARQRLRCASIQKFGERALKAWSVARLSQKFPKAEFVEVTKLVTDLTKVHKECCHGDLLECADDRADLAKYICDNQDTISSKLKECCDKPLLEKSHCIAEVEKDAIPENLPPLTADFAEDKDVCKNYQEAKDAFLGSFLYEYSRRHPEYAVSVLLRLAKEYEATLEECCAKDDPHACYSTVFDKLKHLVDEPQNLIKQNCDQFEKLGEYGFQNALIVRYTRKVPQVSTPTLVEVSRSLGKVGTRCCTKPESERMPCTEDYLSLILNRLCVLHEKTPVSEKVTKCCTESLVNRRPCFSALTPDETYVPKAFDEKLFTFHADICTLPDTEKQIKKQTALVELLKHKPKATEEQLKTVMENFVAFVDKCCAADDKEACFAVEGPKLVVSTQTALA

B2: #44 VH6VK1 humanised hIgG1 (antibody, V domains shown)
VH: QVQLQESGPGLVKPSETLSLTCTVSGIDLSSYAMSWVRQAPGKGLEWVSCIDRRGGTFYASWVKGRFTISRDNSKNTLDLQMTSLTAEDTATYYCARDSGAFDPWGQGTLVTVSS
VL: QIVMTQSPSSLSASVGDRVTITCQASQSVYDNYLAWYQQKPGQPPKLLIHAASNLASRVPSRFKGSGSGTEFTLTISSLQCDDFATYYCLGEFSCTTTDCNVFGGGTEVVIK
notes: also called VH6Vκ1
binding result [7]: no binding (tested: supernatant 1:100)
binding result (Bovine serum albumin [8]): no binding (tested: supernatant 1:100)

B3: #44_VH4VK4_H06/pVL (antibody, V domains shown)
VH: QVQLQESGPGLVKPSETLSLTCTVSGIDLSSYAMAWVRQAPGKGLEWIGVIDAAGHTFYASWVKGRFTISKDTSKTTVDLQMTSLTAEDTATYFCARDSGTFDPWGQGTLVTVSS
VL: B2 VL with Q1D, V3Q, R58G, K64S, C81P, E108K, V110E
notes: also called Clone VH4_H06; #44_VH4_H06
binding result (Bovine serum albumin [1]): no binding (tested: 30 ng/ml (legend 1:100))
inhibition of monomeric tau uptake into human astrocytes [2]: 35.1%
inhibition of monomeric tau uptake into human iPSC-derived neurons [2]: 71%
inhibition of aggregated tau uptake into human astrocytes [3]: 39.1%
inhibition of aggregated tau uptake into human iPSC-derived neurons [3]: 55%
Fold improvement (KD, to pVH/pVL) [4]: 5
koff [4]: 0.00524 s⁻¹
kon [4]: 3.43e+06 M⁻¹ s⁻¹
Kd [5]: 1.53 nM
Fold change (KD, to pVH/pVL) [6]: 5.77
Kd [6]: 1.14 nM
koff [6]: 0.00444 s⁻¹
kon [6]: 3.9e+06 M⁻¹ s⁻¹

B6: #44 VH0VK0 chimeric human IgG1 (antibody, V domains shown)
VH: QSVEESGGRLVTPGTPLTLTCTVSGIDLSSYAMAWVRQAPGKGLEWIGCIDRRGGTFYASWVKGRFTISKTSTTVDLKMTSLTTEDTATYFCARDSGAFDPWGPGTLVTVSS
VL: QIVMTQTPSSVSAAVGGTVTIKCQASQSVYDNYLAWYQQKPGQPPKLLIHAASNLASRVPSRFKGSGSGTQFTLTISDVQCDDAATYYCLGEFSCTTTDCNVFGGGTEVVVK
notes: rabbit VH and VK on human IgG1; also called VH0Vκ0; Clone #44 hIgG1
Kd [11]: 3.83 nM
Relative KD (to VH0VK0) [11]: 1
koff [11]: 0.0126 s⁻¹
kon [11]: 3.28e+06 M⁻¹ s⁻¹
Kd [10]: 4.68 nM
koff [10]: 0.00968 s⁻¹
kon [10]: 2.07e+06 M⁻¹ s⁻¹
Kd [12]: 3.25 nM
Relative KD (to VH0VK0) [12]: 1
koff [12]: 0.0107 s⁻¹
kon [12]: 3.3e+06 M⁻¹ s⁻¹

B7: Clone 2 (#44) rabbit monoclonal IgG (antibody, V domains shown)
VH: B6 VH
VL: QIVMTQTPSSVSAAVGGTVTIKCQASQSVYDNYLAWYQQKPGQPPKLLIHAASNLASRVPSRFKGSGSGTQFTLTISDVQCDDAATYYCLGEFSCTTTDCNVFGGGTEVVVKG
notes: rabbit IgG; also called clone #44; D6
EC50 [9]: 1.05 nM

More lines, main results first:

inhibition of monomeric tau uptake into human astrocytes [2]: 35.6%
inhibition of monomeric tau uptake into human iPSC-derived neurons [2]: 81.8%
inhibition of aggregated tau uptake into human astrocytes [3]: 32.6%
inhibition of aggregated tau uptake into human iPSC-derived neurons [3]: 65.5%
Fold improvement (KD, to pVH/pVL) [4]: 10.5
koff [4]: 0.00185 s⁻¹
kon [4]: 2.51e+06 M⁻¹ s⁻¹
Kd [5]: 0.736 nM
Fold change (KD, to pVH/pVL) [6]: 11.1
Kd [6]: 0.593 nM
koff [6]: 0.0017 s⁻¹
kon [6]: 2.86e+06 M⁻¹ s⁻¹
B1: #44_VH4VK4_H04/pVL (antibody, V domains shown)
VH: B3 VH with V50C, A53R, A54R, H56G, S99A, T101S, D103H
VL: B2 VL with Q1D, V3Q, R58G, K64S, C81P, E108K, V110E
notes: also called VH04/pVL; Clone VH4_H04
binding result (Bovine serum albumin [1]): no binding (tested: 30 ng/ml (legend 1:100))

EC50 [9]: 0.82 nM
B4: Clone 1 (#66) rabbit monoclonal IgG (antibody, V domains shown)
VH: QSVEESGGRLVTPGTPLTLTCTVSGIDLSSNAMIWVRQAPGKGLEYIGNIGTHGTTYYASWAKGRFTISKTSTTVDLKMTSPTTEDTATYFCSRGDIWGPGTLVTVSL
VL: AQVLTQTESPVSAPLRGTVTINCQASQSVDDNNNLAWYQQKPGQPPKLLIYEASTLASGVSSRFKGSGSGTQFTLTISDVQCDDAATYYCLGEFSCSSADCVVFGGGTEVVVKG
notes: rabbit IgG; also called clone #66; B9

Kd [10]: 2.39 nM
koff [10]: 0.00478 s⁻¹
kon [10]: 2.01e+06 M⁻¹ s⁻¹
B5: Clone #66 (Clone 1) chimeric human IgG1 (antibody, V domains shown)
VH: B4 VH
VL: B4 VL
notes: rabbit VH and VK on human IgG1; also called #66 hIgG1
